The values below come from doi:10.1101/2024.06.03.596960 (bioRxiv, 2024).

B1: ZBTB16 BTB domain (residues 1-130) (domain or fragment)
chain: MDLTKMGMIQLQNPSHPTGLLCKANQMRLAGTLCDVVIMVDSQEFHAHRTVLACTSKMFEILFHRNSQHYTLDFLSPKTFQQILEYAYTATLQAKAEDLDDLLYAAEILEIEYLEEQCLKMLETIQASDD

One assay deals with biotinylated ^AviSKP1-FBXO22(12-403) (UniProt P63208). As to the kind of experiment: AlphaScreen or HTRF.
Chain of biotinylated ^AviSKP1-FBXO22(12-403) (P63208 2-163, chain 1 of 2): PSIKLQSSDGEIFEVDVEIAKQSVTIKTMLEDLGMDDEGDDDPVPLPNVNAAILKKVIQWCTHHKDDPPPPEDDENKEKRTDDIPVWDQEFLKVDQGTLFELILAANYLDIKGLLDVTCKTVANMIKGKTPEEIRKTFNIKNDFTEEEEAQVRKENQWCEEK
Chain of biotinylated ^AviSKP1-FBXO22(12-403) (Q8NEZ5 12-403, chain 2 of 2, further chain): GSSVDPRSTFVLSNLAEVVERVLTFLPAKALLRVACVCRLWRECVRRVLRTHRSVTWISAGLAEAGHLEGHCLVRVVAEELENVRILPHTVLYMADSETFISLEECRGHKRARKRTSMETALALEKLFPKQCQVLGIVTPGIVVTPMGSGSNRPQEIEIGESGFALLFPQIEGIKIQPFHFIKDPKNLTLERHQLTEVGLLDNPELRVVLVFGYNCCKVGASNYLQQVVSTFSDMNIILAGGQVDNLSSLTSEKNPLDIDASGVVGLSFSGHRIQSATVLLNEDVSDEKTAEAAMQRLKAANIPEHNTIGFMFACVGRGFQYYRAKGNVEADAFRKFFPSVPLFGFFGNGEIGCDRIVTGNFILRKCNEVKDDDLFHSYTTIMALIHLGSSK
Molecule B1 had an IC50 of 622 nM.

The next assay has the same target. Description: AlphaScreen or HTRF. This is another data set of the same source. (In Alpha technology, singlet oxygen from a donor bead excites a nearby acceptor bead.)
As for “BACH1 BTB domain (residues 7-128), wild type, tag-free (from UniProt O14867 7-128) (domain or fragment)”, the IC50 came out at 64 nM.
Regarding “BACH1^BTB E12R (from UniProt O14867 7-128) (domain or fragment)”, the IC50 was 149 nM.
The same measure, in the same setting: the figure for “BACH1^BTB F9A (from UniProt O14867 7-128) (domain or fragment)” is 320 nM; for “BACH1^BTB F125A (from UniProt O14867 7-128) (domain or fragment)” it is 7460 nM; for “BACH1^BTB F125Y (from UniProt O14867 7-128) (domain or fragment)” it is 656 nM.
Still for that read-out and setting: with “BACH1^BTB S13A (from UniProt O14867 7-128) (domain or fragment)” the figure was 183 nM.
Still for that read-out and setting: the figure for “BACH1^BTB S13D (from UniProt O14867 7-128) (domain or fragment)” is 2460 nM.
Consider “BACH1^BTB Y11A (from UniProt O14867 7-128) (domain or fragment)”, for which the half-inhibitory concentration (IC50) amounted to 2660 nM.
Still for that read-out and setting: with “BACH1^BTB Y11F (from UniProt O14867 7-128) (domain or fragment)” the figure was 140 nM; with “BACH2 BTB domain (residues 8-131) (from UniProt Q9BYV9 8-131) (domain or fragment)”, 85 nM.
Still for that read-out and setting: with “KEAP1 BTB domain (residues 48-180) (from UniProt Q14145 48-180) (domain or fragment)” the figure was 150 nM.

The next assay deals with His10-TEV-BACH1^BTB (UniProt O14867). As to the kind of experiment: AlphaScreen or HTRF.
“SKP1-FBXO22(Q307E) (cancer-associated, TCGA) (from UniProt P63208 2-163; Q8NEZ5 12-403) (complex)” showed a half-maximal inhibitory concentration (IC50) of 575 nM.
For the molecule “SKP1-FBXO22(Q307R) (cancer-associated, TCGA) (from UniProt P63208 2-163; Q8NEZ5 12-403) (complex)”, the IC50 worked out at 165 nM.
On to “SKP1-FBXO22(R367L) (cancer-associated, TCGA) (from UniProt P63208 2-163; Q8NEZ5 12-403) (complex)”, for which the IC50 is 1040 nM.
For “SKP1-FBXO22(R367W) (cancer-associated, TCGA) (from UniProt P63208 2-163; Q8NEZ5 12-403) (complex)”, the IC50 worked out at 1480 nM.
Take “SKP1-FBXO22(R376D) (from UniProt P63208 2-163; Q8NEZ5 12-403) (complex)”: the IC50 is 900 nM.
On the same count and under the same terms, the figure for “SKP1-FBXO22(R376P) (from UniProt P63208 2-163; Q8NEZ5 12-403) (complex)” is 1350 nM.

As usually defined, the IC50 is the concentration at which inhibition is half-maximal.
